Data: patent publication US20210395344A1 (TWIST BIOSCIENCE, published 2021)
Changes are numbered by the printed parent chain.

B1: 1-3 (antibody, V domains shown)
VH: EVQLLESGGGLVQPGGSLRLSCAASGFTFSSQAMSWVRQAPGKGLEWVSAISGSGGGTYYADSVKGRFTISRDNSKNTLYLQMNSLRAEDTAVYYCAKDRRFGEFDPWGQGTLVTVSS
VL: QSALTQPASVSGSPGQSITISCTGISSDVGSYNLVSWYQQHPGKAPKLMIYEGTKRPSGVSNRFSGSKSGNTASLTISGLQAEDEADYYCCSYAGSSSFVVFGGGTKLTVL
notes: also called variant 1-3
B2: 1-10 (antibody, V domains shown)
VH: EVQLLESGGGLVQPGGSLRLSCAASGFTFSSYDMSWVRQAPGKGLEWVSVISGSGGSTYYADSVKGRFTISRDNSKNTLYLQMNSLRAEDTAVYYCAKGPLVGWYFDLWGQGTLVTVSS
VL: B1 VL with I25T, D28N
notes: also called variant 1-10
B3: 1-47 (antibody, V domains shown)
VH: B1 VH
VL: B1 VL with I25T, D28G, T54I
notes: also called variant 1-47
B4: 1-31 (antibody, V domains shown)
VH: EVQLLESGGGLVQPGGSLRLSCAASGFTFSSYAMNWVRQAPGKGLEWVSAISGSGGSTFYADSVKGRFTISRDNSKNTLYLQMNSLRAEDTAVYYCTRPPYGDYGDYWGQGTLVTVSS
VL: B1 VL with I25T, S31K, T54S, K55Q, S97R, S98T, F99P
notes: also called variant 1-31
B5: 1-27 (antibody, V domains shown)
VH: EVQLLESGGGLVQPGGSLRLSCAASGFTFSSYAMTWVRQAPGKGLEWVSAISGSGGGTYYADSVKGRFTISRDNSKNTLYLQMNSLRAEDTAVYYCASSSSWQFDYWGQGTLVTVSS
VL: B1 VL with I25T, D28Y, S31H, T54S, K55R, S97Y, S98T, F99H, V100Y
notes: also called variant 1-27
B6: 1-5 (antibody, V domains shown)
VH: B1 VH
VL: B1 VL with I25T, D28G, G53A, T54S, S97Y, S98T, V100A
notes: also called variant 1-5
B7: 1-30 (antibody, V domains shown)
VH: B4 VH with N35T
VL: B1 VL with I25T, S27R, S97R, S98T, F99P
notes: also called variant 1-30
B8: 1-28 (antibody, V domains shown)
VH: B5 VH with A33G, T35S
VL: B1 VL with I25T, D28G, T54S, K55Q, S98T, F99H, V100Y
notes: also called variant 1-28
B9: 1-7 (antibody, V domains shown)
VH: B2 VH
VL: B1 VL with I25T, V29F, T54N, S98T
notes: also called variant 1-7
B10: 1-4 (antibody, V domains shown)
VH: B1 VH
VL: B1 VL with I25T, S31T, T54S, K55Q
notes: also called variant 1-4
B11: 1-32 (antibody, V domains shown)
VH: B4 VH with N35Y
VL: QSALTQPASVSGSPGQSITISCTGTSSDVGGYNLVSWYQQHPGKAPKLMIYEGNKRPSGVSNRFSGSKSGNTASLTISGLQAEDEADYYCCSYAGSSTFPVVFGGGTKLTVL
notes: also called variant 1-32
B12: 1-23 (antibody, V domains shown)
VH: EVQLLESGGGLVQPGGSLRLSCAASGFTFSSYAISWVRQAPGKGLEWVSIISGSGGSTYYADSVKGRFTISRDNSKNTLYLQMNSLRAEDTAVYYCAREGYRDYLWYFDLWGQGTLVTVSS
VL: QSALTQPASVSGSPGQSITISCTGTSNDVGSYNLVSWYQQHPGKAPKLMIYEGNKRPSGVSNRFSGSKSGNTASLTISGLQAEDEADYYCCSYAGSYTVFGGGTKLTVL
notes: also called variant 1-23
B13: 1-24 (antibody, V domains shown)
VH: B12 VH with I34M, S35N
VL: B12 VL with N27S, S31Y, S96G, Y97S, T98V
notes: also called variant 1-24
B14: 1-17 (antibody, V domains shown)
VH: EVQLLESGGGLVQPGGSLRLSCAASGFTFSSYAMYWVRQAPGKGLEWVSAISGSAGSTYYADSVKGRFTISRDNSKNTLYLQMNSLRAEDTAVYYCARDTNDFWSGYSIFDPWGQGTLVTVSS
VL: QSALTQPASVSGSPGQSITISCTGTSSDIGSYNLVSWYQQHPGKAPKLMIYEGTKRPSGVSNRFSGSKSGNTASLTISGLQAEDEADYYCCSYAGSRTYVFGGGTKLTVL
notes: also called variant 1-17
B15: 1-42 (antibody, V domains shown)
VH: EVQLLESGGGLVQPGGSLRLSCAASGVTFSSYAMSWVRQAPGKGLEWVSAITGSGGSTYYADSVKGRFTISRDNSKNTLYLQMNSLRAEDTAVYYCAKHGSGTIFGVVIAKYYFDYWGQGTLVTVSS
VL: B14 VL with I29V, S31R, T54G, G95S, R97S, Y99L
notes: also called variant 1-42

What follows are binders tested against T1, Acro COVID S1 (S1N-C82E8) (SARS-CoV-2, UniProt P0DTC2 16-685) (assay: phage ELISA).
T1 construct: domain: S1

In order of rising “ELISA fold over background” value:
1. B8  1 fold over background
2. B10  1 fold over background
3. B5  1.5 fold over background
4. B6  1.5 fold over background
5. B1  1.6 fold over background
6. B12  5.1 fold over background
7. B9  6.8 fold over background
8. B3  8.1 fold over background
9. B11  11.5 fold over background
10. B13  12.9 fold over background
11. B7  16.8 fold over background
12. B2  17.4 fold over background
13. B15  22.7 fold over background
14. B14  25.1 fold over background
15. B4  30.4 fold over background

Target: T1, Acro COVID S1 (S1N-C82E8)
Test: phage ELISA
Remark: another data set of the same source

In order of falling “ELISA fold over background” value:
1. B4  30.4 fold over background
2. B14  25.1 fold over background
3. B15  22.7 fold over background
4. B2  17.4 fold over background
5. B7  16.8 fold over background
6. B13  12.9 fold over background
7. B11  11.5 fold over background
8. B3  8.1 fold over background
9. B9  6.8 fold over background
10. B12  5.1 fold over background
11. B1  1.6 fold over background
12. B5  1.5 fold over background
13. B6  1.5 fold over background
14. B8  1 fold over background
15. B10  1 fold over background
